The record followed here is patent US20220041711A1 (NGM BIOPHARMACEUTICALS, published 2022).

Assay [1] concerns the target T1, human LAIR-1-CD3ζ chimeric receptor on NFAT-GFP reporter cells (human, UniProt P20963 31-164, limits assumed). Briefly: cell-based or functional assay.
The target of assay [2] is T1, human LAIR-1-CD3ζ chimeric receptor on …. The assay is described as follows: cell-based or functional assay. This is another data set of the same source.
Assay [3] deals with T2, cyno LAIR-1-CD3ζ chimeric receptor on NFAT-GFP reporter cells (cynomolgus monkey; human). The assay is described as follows: cell-based or functional assay.
Assay [4] addresses T1, human LAIR-1-CD3ζ chimeric receptor on …. Briefly: cell-based or functional assay. The source holds these as a separate data set.
The target in assay [5] is T2, cyno LAIR-1-CD3ζ chimeric receptor on …. The assay is described as follows: cell-based or functional assay. This is another data set of the same source.
The target in another assay is T3, human LAIR-1-Fc (human, UniProt Q6GTX8 22-165).
T3 construct: also called biotinylated human LAIR-1-Fc; not shown: a Fc region
T3 chain: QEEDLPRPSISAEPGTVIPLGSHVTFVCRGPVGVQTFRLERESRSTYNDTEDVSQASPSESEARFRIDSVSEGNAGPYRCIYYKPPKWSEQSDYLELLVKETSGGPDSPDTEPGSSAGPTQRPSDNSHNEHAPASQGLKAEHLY
Briefly: ELISA blocking: plate coated with 5 µg/mL human collagen type 1, antibody titrated, 1 µg/mL biotinylated human LAIR-1-Fc, streptavidin-HRP, OD650. In general terms: In an ELISA, binding on a coated surface is turned into a signal by an enzyme label.

Assay [6] deals with T4, mouse LAIR-1 (form in the assay not stated) (mouse, UniProt Q8BG84 22-144, limits assumed).
T4 sequence: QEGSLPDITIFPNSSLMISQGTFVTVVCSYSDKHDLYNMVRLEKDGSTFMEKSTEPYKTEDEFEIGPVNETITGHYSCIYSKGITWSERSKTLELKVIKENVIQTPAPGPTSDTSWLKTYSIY
The assay is described as follows: not described.

The next assay has as its target T5, human LAIR-1-ECD (human, UniProt Q6GTX8 22-165).
T5 construct: Recombinant, expressed in mammalian cells; also called extracellular region of human LAIR-1
T5 chain: T3 chain
Briefly: SPR (Biacore) as in Example 2.

Assay [7] concerns the target T4, mouse LAIR-1 (form in the assay not …). The assay is described as follows: SPR (Biacore). Background: SPR reads the build-up and loss of mass on a sensor chip optically.

For orientation: Kd means a measure of binding affinity in units of concentration. High values mean a looser complex, low ones a tighter complex. Usually koff stands for the rate constant with which the complex falls apart. A lower koff goes with slow dissociation. By kon is commonly meant the rate constant with which the complex forms. Low values mean slower complex formation, high ones faster complex formation.

Like-named read-outs stand apart in the source and are kept apart here.

B1: anti-LAIR-1 antibody ch57D12 (antibody, V domains shown)
VH: QVQLQQSGAELARPGASVNLSCRASGYSFTSFGISWVKQRTGQGLEWIGEIYPRSDNTFYNEKFKGKATLTADKSSSTAYMELRSLTSEDSAVYFCARHFGSSSFDYWGQGTTLTVSS
VL: ENVLTQSPPIMAASLGQKVTMTCSASSSVSSIYFHWYQQKSGTSPKPLIHRASNLASGVPARFSGSGSGTSYSLTISSVEAEDDATYYCQQWSGYPLTFGGGTKLEIK
notes: The prefix 'ch' is not defined
For B1, in [1], the “IC50 (read off the curve): % GFP+ human LAIR-1 reporter cells on coated MARCO-his” value is approximately 0.2 nM, the “IC50 (read off the curve): % GFP+ human LAIR-1 reporter cells on coated collagen 1” value is approximately 0.7 nM and the “IC50 (read off the curve): % GFP+ human LAIR-1 reporter cells on coated collagen 4” value is approximately 0.4 nM. In [2], the “IC50 (read off the curve): % GFP+ human LAIR-1 reporter cells on coated MARCO-his” value is approximately 0.3 nM, the “IC50 (read off the curve): % GFP+ human LAIR-1 reporter cells on coated collagen 1” value was approximately 0.3 nM and the “IC50 (read off the curve): % GFP+ human LAIR-1 reporter cells on coated collagen 4” value was approximately 0.2 nM. In assay [3], the “IC50 (read off the curve): % GFP+ cyno LAIR-1 reporter cells on coated MARCO-his” value is approximately 1 nM, the “IC50 (read off the curve): % GFP+ cyno LAIR-1 reporter cells on coated collagen 1” value is approximately 2 nM and the “IC50 (read off the curve): % GFP+ cyno LAIR-1 reporter cells on coated collagen 4” value is approximately 0.8 nM. Besides, the “IC50 (read off the curve): % GFP+ human LAIR-1 reporter cells on polymerized collagen matrix” value in [4] was approximately 0.3 nM. The “IC50 (read off the curve): % GFP+ cyno LAIR-1 reporter cells on polymerized collagen matrix” value in assay [5] was approximately 1 nM. In addition, in the assay with human LAIR-1-Fc, the “IC50 (read off the curve)” value is approximately 5 nM.

B2: humanized anti-LAIR-1 antibody Hz62G10.v1 (antibody, human IgG1, kappa, N297G, V domains shown)
VH: EVQLVESGGGLVKPGGSLRLSCAASGFTFNINAMNWVRQAPGKGLEWVARIRTKNNNFATYYADSVKDRFTISRDDSKNTLYLQMNSLKTEDTAVYYCVRGPYFDYWGQGTLVTVSS
VL: DIQMTQSPSSLSASVGDRVTITCLASQTIGTWLAWYQQKPGKAPKLLIYAATSLADGVPSRFSGSGSGTDFTLTISSLQPEDFATYYCQQLYSTPYTFGGGTKVEIKR
notes: Humanized 62G10
In the case of B2, the binding result in assay [6] is recorded as “no binding”. Also, in the assay with human LAIR-1-ECD, binding was characterised by a dissociation constant (Kd) of 1.1 nM, the off-rate constant (koff) is 0.00079 s⁻¹ and the kon worked out at 700000 M⁻¹ s⁻¹. Besides, in [2], the “IC50 (read off the curve): % GFP+ human LAIR-1 reporter cells on coated MARCO-his” value is approximately 0.05 nM, the “IC50 (read off the curve): % GFP+ human LAIR-1 reporter cells on coated collagen 1” value is approximately 0.04 nM and the “IC50 (read off the curve): % GFP+ human LAIR-1 reporter cells on coated collagen 4” value is approximately 0.03 nM. In [3], the “IC50 (read off the curve): % GFP+ cyno LAIR-1 reporter cells on coated MARCO-his” value is approximately 0.2 nM, the “IC50 (read off the curve): % GFP+ cyno LAIR-1 reporter cells on coated collagen 1” value is approximately 0.4 nM and the “IC50 (read off the curve): % GFP+ cyno LAIR-1 reporter cells on coated collagen 4” value is approximately 0.2 nM. Moreover, in assay [4], the “IC50 (read off the curve): % GFP+ human LAIR-1 reporter cells on polymerized collagen matrix” value is approximately 0.03 nM. The “IC50 (read off the curve): % GFP+ cyno LAIR-1 reporter cells on polymerized collagen matrix” value in assay [5] is approximately 0.2 nM. Moreover, in the assay with human LAIR-1-Fc, the “IC50 (read off the curve)” value is approximately 3 nM.

B3: ch43H2 (antibody, V domains shown)
VH: EVQLVESGGGLVQPGRSLKVSCAASGFTFSNYGIHWIRQAPTKGLEWVASISPSGRSTYFRDSVKGRFTISRDNAKNTLYLQLDSLRSEDTATYYCATGINYSSFDYWGQGVMVTVSS
VL: DIVMTQSPTSMSISVGDRVTMNCKASQNVGSHVDWYQQKTGQSPKLLISTASNRYTGVPDRFTGSGSGTDFTFTINNMQTEDLAVYYCMQSNSYPPTFGGGTKLELK
notes: also called purified ch43H2
In assay [7], B3 displayed a Kd of 1.1 nM, a koff of 0.00057 s⁻¹ and a kon of 530000 M⁻¹ s⁻¹.
